One block for each molecule: values may come before it.
Key:
[1] = target: human GPC3 on tumor cells (membrane-associated GPC3 in FFPE xenograft tissue) (human) (UniProt P51654); experiment: IHC on hepatocellular carcinoma
[2] = target: human GPC3 on tumor cells (membrane-associated GPC3 in FFPE xenograft tissue) (human) (UniProt P51654); experiment: IHC on FFPE xenograft tumor tissue, Huh7
[3] = target: human GPC3 on tumor cells (membrane-associated GPC3 in FFPE xenograft tissue) (human) (UniProt P51654); experiment: IHC on FFPE xenograft tumor tissue, Hep3B
[4] = target: human GPC3 on tumor cells (membrane-associated GPC3 in FFPE xenograft tissue) (human) (UniProt P51654); experiment: IHC on FFPE xenograft tumor tissue, HepG2
[5] = target: human GPC3 on tumor cells (membrane-associated GPC3 in FFPE xenograft tissue) (human) (UniProt P51654); experiment: IHC on squamous cell carcinoma of the lung
[6] = target: human GPC3 on tumor cells (membrane-associated GPC3 in FFPE xenograft tissue) (human) (UniProt P51654); experiment: IHC on FFPE xenograft tumor tissue, PP5 (PLC/PRF/5)
[7] = target: human GPC3 on tumor cells (membrane-associated GPC3 in FFPE xenograft tissue) (human) (UniProt P51654); experiment: IHC on FFPE xenograft tumor tissue; Hep3B, table row 1
[8] = target: human GPC3 on tumor cells (membrane-associated GPC3 in FFPE xenograft tissue) (human) (UniProt P51654); experiment: IHC on FFPE xenograft tumor tissue; Hep3B, table row 2
[9] = target: human GPC3 on tumor cells (membrane-associated GPC3 in FFPE xenograft tissue) (human) (UniProt P51654); experiment: IHC on FFPE xenograft tumor tissue; Hep3B, table row 3
[10] = target: human GPC3 on tumor cells (membrane-associated GPC3 in FFPE xenograft tissue) (human) (UniProt P51654); experiment: IHC on FFPE xenograft tumor tissue; HepG2, table row 4
[11] = target: human GPC3 on tumor cells (membrane-associated GPC3 in FFPE xenograft tissue) (human) (UniProt P51654); experiment: IHC on FFPE xenograft tumor tissue; HepG2, table row 5
[12] = target: human GPC3 on tumor cells (membrane-associated GPC3 in FFPE xenograft tissue) (human) (UniProt P51654); experiment: IHC on FFPE xenograft tumor tissue; HepG2, table row 6
[13] = target: human GPC3 on tumor cells (membrane-associated GPC3 in FFPE xenograft tissue) (human) (UniProt P51654); experiment: IHC (DAB), implanted HepG2 tumor (GPC3hi), 1G12 at 0.5 µg/mL
[14] = target: human GPC3 on tumor cells (membrane-associated GPC3 in FFPE xenograft tissue) (human) (UniProt P51654); experiment: IHC on FFPE xenograft tumor tissue, cytoplasmic staining; Hep3B, table row 1
[15] = target: human GPC3 on tumor cells (membrane-associated GPC3 in FFPE xenograft tissue) (human) (UniProt P51654); experiment: IHC on FFPE xenograft tumor tissue, cytoplasmic staining; Hep3B, table row 2
[16] = target: human GPC3 on tumor cells (membrane-associated GPC3 in FFPE xenograft tissue) (human) (UniProt P51654); experiment: IHC on FFPE xenograft tumor tissue, cytoplasmic staining; Hep3B, table row 3
[17] = target: human GPC3 on tumor cells (membrane-associated GPC3 in FFPE xenograft tissue) (human) (UniProt P51654); experiment: IHC on FFPE xenograft tumor tissue, cytoplasmic staining; HepG2
[18] = target: recombinant human glypican-3 (rhGPC3) (human) (UniProt P51654); experiment: BLI; antibody captured on IgG-Fc capture biosensor, antigen as analyte, global 1:1 fit
Sequence of recombinant human glypican-3 (rhGPC3) (human) (P51654 25-559): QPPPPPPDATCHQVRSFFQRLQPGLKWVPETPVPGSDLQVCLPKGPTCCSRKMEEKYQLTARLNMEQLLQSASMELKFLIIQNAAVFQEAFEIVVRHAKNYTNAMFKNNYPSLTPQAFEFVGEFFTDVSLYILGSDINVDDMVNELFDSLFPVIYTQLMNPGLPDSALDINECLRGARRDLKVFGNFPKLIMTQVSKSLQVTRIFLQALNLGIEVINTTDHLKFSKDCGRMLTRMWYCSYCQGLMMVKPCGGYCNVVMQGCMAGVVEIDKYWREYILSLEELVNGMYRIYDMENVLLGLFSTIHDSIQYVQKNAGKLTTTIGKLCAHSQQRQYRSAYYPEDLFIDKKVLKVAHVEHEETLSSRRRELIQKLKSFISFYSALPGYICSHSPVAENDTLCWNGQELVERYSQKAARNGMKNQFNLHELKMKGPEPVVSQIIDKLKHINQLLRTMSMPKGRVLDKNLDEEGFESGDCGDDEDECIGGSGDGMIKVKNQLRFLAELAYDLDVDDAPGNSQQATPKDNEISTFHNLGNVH

[19] = target: human GPC3 on tumor cells (membrane-associated GPC3 in FFPE xenograft tissue) (human) (UniProt P51654); experiment: IHC (DAB), implanted PP5 tumor (GPC3lo), bottom row of images, 1G12 at 0.5 µg/mL
[20] = target: human GPC3 on tumor cells (membrane-associated GPC3 in FFPE xenograft tissue) (human) (UniProt P51654); experiment: IHC (DAB), implanted PP5 tumor (GPC3lo), middle row of images, 1G12 at 0.5 µg/mL
[21] = target: recombinant human glypican-3 (rhGPC3) (human) (UniProt P51654); experiment: BLI; antibody captured on IgG-Fc capture biosensor, antigen as analyte from 100 nM, 1:3 dilutions, global 1:1 fit
[22] = target: human GPC3 on tumor cells (membrane-associated GPC3 in FFPE xenograft tissue) (human) (UniProt P51654); experiment: IHC on FFPE xenograft tumor tissue; HepG2, table row 5 (so in the source); the four percentages of the row add up to 105
[23] = target: human GPC3 on tumor cells (membrane-associated GPC3 in FFPE xenograft tissue) (human) (UniProt P51654); experiment: IHC on FFPE xenograft tumor tissue; Hep3B, table row 3 (so in the source); does not fit the 90 and the 255 of the same row
[24] = target: recombinant human glypican-3 (rhGPC3) (human) (UniProt P51654); experiment: BLI; humanized GC33 captured on anti-human IgG-Fc biosensor, antigen as analyte from 100 nM, 1:3 dilutions, global 1:1 fit
[25] = target: T1, recombinant human glypican-5 (rhGPC5) (human, UniProt P78333 25-551, limits assumed); experiment: western blot, primary antibody 1 ug/mL
T1 sequence (looked up): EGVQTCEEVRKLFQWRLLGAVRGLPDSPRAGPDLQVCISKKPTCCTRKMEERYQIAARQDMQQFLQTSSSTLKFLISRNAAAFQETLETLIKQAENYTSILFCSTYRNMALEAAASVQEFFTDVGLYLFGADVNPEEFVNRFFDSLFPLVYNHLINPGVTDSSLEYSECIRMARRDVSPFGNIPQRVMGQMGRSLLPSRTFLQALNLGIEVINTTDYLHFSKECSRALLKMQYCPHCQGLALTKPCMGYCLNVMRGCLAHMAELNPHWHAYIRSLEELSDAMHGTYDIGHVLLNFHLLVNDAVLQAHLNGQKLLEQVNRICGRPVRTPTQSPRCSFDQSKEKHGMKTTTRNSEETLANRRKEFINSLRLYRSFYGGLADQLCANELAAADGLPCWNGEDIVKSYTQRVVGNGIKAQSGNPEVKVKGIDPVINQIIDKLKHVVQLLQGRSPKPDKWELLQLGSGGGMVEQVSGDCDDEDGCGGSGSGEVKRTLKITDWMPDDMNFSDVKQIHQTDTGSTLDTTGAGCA

[26] = target: T2, recombinant human glypican-6 (rhGPC6) (human, UniProt Q9Y625 24-529, limits assumed); experiment: western blot, primary antibody 1 ug/mL
T2 sequence (looked up): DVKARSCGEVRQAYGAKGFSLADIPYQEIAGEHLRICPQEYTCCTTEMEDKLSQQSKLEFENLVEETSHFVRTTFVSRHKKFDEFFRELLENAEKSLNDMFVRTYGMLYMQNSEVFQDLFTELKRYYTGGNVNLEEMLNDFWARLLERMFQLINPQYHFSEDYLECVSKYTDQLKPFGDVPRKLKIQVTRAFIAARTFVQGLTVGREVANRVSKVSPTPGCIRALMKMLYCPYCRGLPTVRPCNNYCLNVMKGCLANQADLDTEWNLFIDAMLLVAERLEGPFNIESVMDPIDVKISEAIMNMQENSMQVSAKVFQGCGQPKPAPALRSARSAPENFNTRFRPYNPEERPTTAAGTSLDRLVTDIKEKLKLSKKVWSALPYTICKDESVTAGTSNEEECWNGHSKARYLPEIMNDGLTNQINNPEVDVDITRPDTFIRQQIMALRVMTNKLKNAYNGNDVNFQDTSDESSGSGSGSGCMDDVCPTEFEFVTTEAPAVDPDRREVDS

[27] = target: recombinant human glypican-3 (rhGPC3) (human) (UniProt P51654); experiment: BLI; antibody captured on anti-mouse IgG-Fc biosensor, antigen as analyte, global 1:1 fit
[28] = target: recombinant human glypican-3 (rhGPC3) (human) (UniProt P51654); experiment: BLI in-tandem cross-competition; buffer only, no saturating antibody (maximal binding reference)
[29] = target: recombinant human glypican-3 (rhGPC3) (human) (UniProt P51654); experiment: BLI; antibody captured on anti-mouse IgG-Fc biosensor, antigen as analyte from 100 nM, 1:3 dilutions, global 1:1 fit
[30] = target: recombinant human glypican-3 (rhGPC3) (human) (UniProt P51654); experiment: BLI in-tandem cross-competition; biotinylated antigen on SA biosensor saturated with 150 nM GC33 (competitor), then 150 nM 204
[31] = target: recombinant human glypican-3 (rhGPC3) (human) (UniProt P51654); experiment: BLI in-tandem cross-competition; biotinylated antigen on SA biosensor saturated with 150 nM 204 (self-blocking), then 150 nM 204

Sequence of human GPC3 on tumor cells (membrane-associated GPC3 in FFPE xenograft tissue) (human) (P51654 25-554 limits assumed): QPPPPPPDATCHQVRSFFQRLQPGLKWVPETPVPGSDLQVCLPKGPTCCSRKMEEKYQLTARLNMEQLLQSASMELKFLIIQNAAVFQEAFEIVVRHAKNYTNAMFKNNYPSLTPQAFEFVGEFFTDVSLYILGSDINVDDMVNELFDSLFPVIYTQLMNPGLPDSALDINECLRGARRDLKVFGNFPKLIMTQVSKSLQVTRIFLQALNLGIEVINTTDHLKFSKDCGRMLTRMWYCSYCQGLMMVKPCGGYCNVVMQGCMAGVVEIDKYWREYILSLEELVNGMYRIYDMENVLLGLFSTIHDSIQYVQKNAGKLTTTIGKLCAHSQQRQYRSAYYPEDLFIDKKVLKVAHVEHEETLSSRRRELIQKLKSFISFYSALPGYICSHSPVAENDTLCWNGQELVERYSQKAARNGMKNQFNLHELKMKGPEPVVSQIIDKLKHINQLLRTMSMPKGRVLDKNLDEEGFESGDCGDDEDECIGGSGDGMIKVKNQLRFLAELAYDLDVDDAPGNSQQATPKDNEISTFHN

- Membrane-bound GPC3 H-score [1]: 110
- Membrane-bound GPC3 H-score [2]: 80
- Membrane-bound GPC3 H-score [3]: 265
- Membrane-bound GPC3 H-score [4]: 260
- Membrane-bound GPC3 H-score [5]: 90
- Membrane-bound GPC3 H-score [6]: 75
- % Tumor Cells Positive - Membranous Staining, intensity 0 [7]: 5%
- % Tumor Cells Positive - Membranous Staining, intensity 1+ [7]: 5%
- % Tumor Cells Positive - Membranous Staining, intensity 2+ [7]: 10%
- % Tumor Cells Positive - Membranous Staining, intensity 3+ [7]: 80%
- H-Score (membranous staining) [7]: 265
- Mod/High Intensity (2/3+) [7]: 90%
- % Tumor Cells Positive - Membranous Staining, intensity 0 [8]: 0%
- % Tumor Cells Positive - Membranous Staining, intensity 1+ [8]: 5%
- % Tumor Cells Positive - Membranous Staining, intensity 2+ [8]: 15%
- % Tumor Cells Positive - Membranous Staining, intensity 3+ [8]: 80%
- H-Score (membranous staining) [8]: 275
- Mod/High Intensity (2/3+) [8]: 95%
- % Tumor Cells Positive - Membranous Staining, intensity 0 [9]: 5%
- % Tumor Cells Positive - Membranous Staining, intensity 1+ [9]: 5%
- % Tumor Cells Positive - Membranous Staining, intensity 2+ [9]: 20%
- H-Score (membranous staining) [9]: 255
- Mod/High Intensity (2/3+) [9]: 90%
- % Tumor Cells Positive - Membranous Staining, intensity 0 [10]: 5%
- % Tumor Cells Positive - Membranous Staining, intensity 1+ [10]: 20%
- % Tumor Cells Positive - Membranous Staining, intensity 2+ [10]: 50%
- % Tumor Cells Positive - Membranous Staining, intensity 3+ [10]: 25%
- H-Score (membranous staining) [10]: 195
- Mod/High Intensity (2/3+) [10]: 75%
- % Tumor Cells Positive - Membranous Staining, intensity 0 [11]: 5%
- % Tumor Cells Positive - Membranous Staining, intensity 1+ [11]: 10%
- % Tumor Cells Positive - Membranous Staining, intensity 2+ [11]: 45%
- H-Score (membranous staining) [11]: 220
- Mod/High Intensity (2/3+) [11]: 85%
- % Tumor Cells Positive - Membranous Staining, intensity 0 [12]: 5%
- % Tumor Cells Positive - Membranous Staining, intensity 1+ [12]: 10%
- % Tumor Cells Positive - Membranous Staining, intensity 2+ [12]: 5%
- % Tumor Cells Positive - Membranous Staining, intensity 3+ [12]: 80%
- H-Score (membranous staining) [12]: 260
- Mod/High Intensity (2/3+) [12]: 85%
- Membrane-associated H-Score [13]: 285
- Average Intensity of cytoplasmic staining [14]: 1 +
- Average Intensity of cytoplasmic staining [15]: 1 +
- Average Intensity of cytoplasmic staining [16]: 1 +
- Average Intensity of cytoplasmic staining [17]: 2 +
- koff [18]: 0.00053 s⁻¹
- kon [18]: 170000 M⁻¹ s⁻¹
- Membrane-associated H-Score [19]: 90
- Membrane-associated H-Score [20]: 130
- Kd [21]: 3 nM
- % Tumor Cells Positive - Membranous Staining, intensity 3+ [22]: 45%
- % Tumor Cells Positive - Membranous Staining, intensity 3+ [23]: 20%
Molecule: 1G12 anti-GPC3 monoclonal antibody

- Kd [24]: 1 nM
Molecule: GC33 anti-GPC3 antibody

- binding result [25]: no binding
- binding result [26]: no binding
- koff [27]: 0.0021 s⁻¹
- kon [27]: 820000 M⁻¹ s⁻¹
- % Binding of Competing Antibody [28]: 100%
- Kd [29]: 2.5 nM
- % Binding of Competing Antibody [30]: 89.9%
- % Binding of Competing Antibody [31]: 18.2%
B1: 204 monoclonal antibody (mouse anti-human GPC3) (antibody, IgG2b, V domains shown)
VH: EVQLQQSGPELVKPGASVKISCKTSGYTFTEYAMHWVKQSHGKSLEWIGGINPNNGVTTYNQRFKGKATLTVDKSSSTAYMELRSLTSEDSAVYYCARGLLWYAYWGQGTLVTVSA
VL: DIKMTQSPSSMYASLGERVTITCKASQDINSYLSWFQQKPGKSPKTLIYRANRLVDGVPSRFSGSGSGQDYSLTISSLEYEDMGIYYCLQYDEFPLTFGAGTKLELK
notes: also called GPC.204
